Literature values, collected in article PMC9949911.

Target: IL-18bp (Homo sapiens) (UniProt O95998)
Sequence (O95998 31-194): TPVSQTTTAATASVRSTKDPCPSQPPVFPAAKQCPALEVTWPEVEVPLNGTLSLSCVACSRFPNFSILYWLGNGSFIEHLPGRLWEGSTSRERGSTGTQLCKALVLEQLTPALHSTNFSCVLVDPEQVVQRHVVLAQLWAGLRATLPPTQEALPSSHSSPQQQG

Sequence of IL-18 (Q14116 37-193): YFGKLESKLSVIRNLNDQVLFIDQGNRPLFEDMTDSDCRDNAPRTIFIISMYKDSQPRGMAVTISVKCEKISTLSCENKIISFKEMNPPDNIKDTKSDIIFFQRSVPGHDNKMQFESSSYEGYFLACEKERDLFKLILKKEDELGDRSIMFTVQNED

## IL-18 (from UniProt Q14116)
  Kd: 0.05 nM
